Data reported in patent US20210070872A1 (AGENUS, published 2021).
Substitutions are numbered along the chain they refer to. In names and notes the source's numbering stands. Values belong to the molecule of their own block, whether it stands above or below them.

Assays:
[1] = biological target: purified recombinant human GITR protein (Example 1) (human) (UniProt Q9Y5U5); experiment: SPR (BIAcore), huGITR immobilized on CM5, analyte 12.5-200 nM
[2] = biological target: T1, human GITR D60A mutant on 1624-5 cells (human, UniProt Q9Y5U5 26-241); experiment: flow cytometry on 1624-5 cells, 2 µg/ml, MFI ratio to polyclonal antibody
T1 chain: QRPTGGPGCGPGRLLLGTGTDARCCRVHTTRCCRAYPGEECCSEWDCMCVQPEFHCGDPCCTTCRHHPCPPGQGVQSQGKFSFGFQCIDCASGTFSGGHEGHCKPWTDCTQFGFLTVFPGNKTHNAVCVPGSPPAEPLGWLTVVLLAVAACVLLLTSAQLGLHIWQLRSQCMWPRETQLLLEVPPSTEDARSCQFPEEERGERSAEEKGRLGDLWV
Procedure: (§1) An average MFI ratio (“AMFI ratio”) was calculated based on the individual MFI ratios for all the mutants. FIG. 34A is a table summarizing the binding of Hum231#2, three germline variants (pab1967, pab1975 and pab1979) and the reference antibody m6C8 to1624-5 cells expressing human GITR alanine mutants. An individual MFI ratio that is above 60% of the AMFI ratio is considered to indicate similar binding, after normalization, of that of the polyclonal antibody and is represented by “+” in FIG. 34A. An individual MFI ratio that is between 30% and 60% of the AMFI ratio is represented by “+/−” in FIG. 34A. An individual MFI ratio that is below 30% of the AMFI ratio is represented by “−” in FIG. 34A.
(§2) All the mean fluorescence intensity (MFI) values were calculated as the mean of two measurements. […] The percentage of binding of an antibody to the GITR alanine mutants relative to the wild type GITR was calculated by dividing a particular MFI ratio for the GITR alanine mutants by the corresponding MFI ratio for the wild type (e.g., dividing MFI ratio_{Hum231#2, D60A} by MFI ratio_{Hum231#2, WT}). The percentage of reduction in binding was determined by calculating, e.g., 100%*(1−(MFI ratio_{Hum231#2, D60A}/MFI ratio_{Hum231#2, WT})).

[3] = biological target: T2, human GITR G63A mutant on 1624-5 cells (human, UniProt Q9Y5U5 26-241); experiment: as above
T2 chain: T1 chain with A35D, G38A
Procedure: as §1, §2

[4] = biological target: T3, GITR antigen (R&D systems, di-sulfide-linked homodimer; 689-GR) (human, UniProt Q9Y5U5 26-161); experiment: SPR (BIAcore T100/T200), antibody captured via anti-human Fab, GITR antigen 40/10/2.5 nM, 1:1 model
T3 construct: Bought
T3 sequence: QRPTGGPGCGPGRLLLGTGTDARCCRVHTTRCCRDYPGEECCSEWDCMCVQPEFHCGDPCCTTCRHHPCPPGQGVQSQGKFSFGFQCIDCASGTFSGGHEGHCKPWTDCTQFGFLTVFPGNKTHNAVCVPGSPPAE
Procedure: All interactions were analyzed at 25° C. using 1× DPBS (PAA, H15-002) plus P20 (0.05%, Pierce, 28320) as running buffer. Anti-GITR antibodies (8 μg/ml in running buffer) were captured to the chip surface of a CM5 sensor chip (GE Healthcare, Series S CM5, BR-1005-30) via an immobilized anti-human Fab antibody (GE Healthcare, Fab Capture Kit, 28958325). To detect unspecific interactions of the GITR antigen, antibody capture was only performed in flow cell 2, whereas in flow cell 1 only the capturing antibody was immobilized. In addition, an unrelated antibody (anti-IL-1β; SK48E26; International Publication No. WO 95/001997) was used to assess specificity of GITR binding. After capture of the anti-GITR antibodies GITR antigen (R&D systems, di-sulfide-linked homodimer; 689-GR) was run through both flow cells in different amounts (40 nM, 10 nM and 2.5 nM) for each antibody. Also a blank curve (running buffer only) was included in each run. Association was run for 90 s and dissociation for 600 s with a flow rate of 10 μl/min. After each run a regeneration step was performed with 10 mM Glycine pH2.0 (GE Healthcare, BR-1003-55) for 60 s with 30 μl/min. Binding curves were evaluated using BIAcore® T200 evaluation software version 2.0.1 applying a Langmuir 1:1 model with global fit of Rmax.

[5] = biological target: T4, V1M/Q62P/S63G cynomolgus GITR on 1624-5 cells (cynomolgus monkey, UniProt Q9Y5U5 26-241 (human entry)); experiment: flow cytometry on 1624-5 cells, 2 µg/ml
T4 construct: also called mutant cynomolgus GITR V1M/Q62P/S63G
T4 chain: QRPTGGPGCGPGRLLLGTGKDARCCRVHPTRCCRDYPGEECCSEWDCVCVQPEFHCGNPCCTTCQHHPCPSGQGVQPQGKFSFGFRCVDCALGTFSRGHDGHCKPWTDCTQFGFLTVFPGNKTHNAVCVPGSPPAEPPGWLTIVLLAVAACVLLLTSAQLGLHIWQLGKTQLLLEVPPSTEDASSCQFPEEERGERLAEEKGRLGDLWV

[6] = biological target: T5, V1M cynomolgus GITR on 1624-5 cells (cynomolgus monkey, UniProt Q9Y5U5 26-241 (human entry)); experiment: flow cytometry on 1624-5 cells
T5 chain: T4 chain with P37Q, G38S

recombinant mouse GITR = biological target: T6, recombinant mouse GITR (mouse, UniProt O35714 20-153, limits assumed); experiment: Western blot, non-reducing
T6 construct: also called Mu GITR recomb protein; immobilized mouse GITR
T6 sequence (looked up): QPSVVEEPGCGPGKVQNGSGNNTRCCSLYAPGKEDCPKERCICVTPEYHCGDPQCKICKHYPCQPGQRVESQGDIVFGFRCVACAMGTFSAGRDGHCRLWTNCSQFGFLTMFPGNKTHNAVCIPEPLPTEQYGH
Procedure: The specificity of the anti-GITR-antibodies was tested by Western blot against purified recombinant human GITR, recombinant mouse GITR, CMS5a cells transfected with human GITR, wild-type CMS5a cells, activated CD4⁺ T cells and untreated CD4⁺ T cells. The Western blot, under non-reducing conditions, is depicted in FIG. 1. The anti-GITR antibodies were reactive with purified recombinant human GITR, not reactive with recombinant mouse GITR, reactive with recombinant human GITR in CMS5a cells, and reactive with natural human GITR in activated CD4⁺ T cells.

[7] = biological target: T7, purified recombinant human GITR protein (Example 1) (human, UniProt Q9Y5U5 26-162, limits assumed); experiment: SPR (BIAcore), huGITR immobilized on CM5, antibody 6.25-100 nM
T7 construct: also called Hu GITR recomb protein; immobilized huGITR
T7 sequence: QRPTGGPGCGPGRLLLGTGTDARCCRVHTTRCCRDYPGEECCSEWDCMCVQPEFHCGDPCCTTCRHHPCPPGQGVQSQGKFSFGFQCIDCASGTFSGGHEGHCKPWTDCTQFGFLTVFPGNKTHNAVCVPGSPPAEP
Procedure: Analysis of ligand (GITR-L) and monoclonal antibody binding to immobilized huGITR was performed by surface plasmon resonance and measured on BIAcore®. GITR (˜1100 RU) was immobilized onto a CM5 sensor chip using standard amine coupling. Analytes were injected over the immobilized GITR for 15 minutes at a flow rate of 5 μl/min followed by a 10 minute dissociation period. After kinetic runs had been performed the affinity and dissociation constants were simultaneously calculated by BiaEvaluation® software (Biacore Life Sciences). Binding of human GITR-L was analysed over a concentration range of 12.5-200 nM and murine anti-GITR monoclonal antibodies were analysed over a concentration of 6.25-100 nM. […] Affinity and dissociation constants for the antibodies are tabulated below in Table 9.

- Ka [1]: 1.81e+08 M⁻¹
- Kd [1]: 5.54 nM
Molecule: human GITR-L (Example 1, BIAcore analyte) (from UniProt Q9UNG2 49-177) (ligand)

- percent reduction in binding relative to wild type human GITR [2]: 10%
- percent increase in binding relative to wild type human GITR [3]: 62%
B1: m6C8 (antibody, human IgG1, V domains shown)
VH: QVTLKESGPGILKPSQTLSLTCSFSGFSLSTSGMGVGWIRQPSGKGLEWLAHIWWDDDKYYNPSLKSQLTISKDTSRNQVFLKITSVDTADAATYYCARTRRYFPFAYWGQGTLVTVSS
VL: DIVMTQSQKFMSTSVGDRVSVTCKASQNVGTNVAWYQQKPGQSPKALIYSASYRYSGVPDRFTGSGSGTDFTLTINNVHSEDLAEYFCQQYNTDPLTFGAGTKLEIKR
notes: also called murine antibody 6C8

- Kd [4]: 0.629 nM
- koff [4]: 0.00178 s⁻¹
- kon [4]: 2.83e+06 M⁻¹ s⁻¹
- percent reduction in binding relative to wild type human GITR [2]: 88%
- percent reduction in binding relative to wild type human GITR [3]: 59%
- binding result [5]: binds
- binding result [6]: no binding (tested: 2 µg/ml)
B2: Hum231#2 (antibody, human IgG1, V domains shown)
VH: QVQLVQSGAEVKKPGASVKVSCKGSGYTFTDYAMYWVRQAPGQGLEWIGVIRTYSGDVTYNQKFKDRATMTVDKSISTAYMELSRLRSDDTAVYYCAKSGTVRGFAYWGQGTLVTVSS
VL: DIVMTQSPDSLAVSLGERATINCKSSQSLLNSGNQKNYLTWYQQKPGQPPKLLIYWASTRESGVPDRFSGSGSGTDFTLTISSLQAEDVAVYHCQNDYSYPYTFGQGTKLEIKR
notes: Human IgG1 with T109S (Kabat) in the light chain constant domain; also called humanized variant Hum231#2 (IGHV1-2*02 and IGK4-1*01)

- Kd [4]: 0.702 nM
- koff [4]: 0.00249 s⁻¹
- kon [4]: 3.55e+06 M⁻¹ s⁻¹
B3: Hum231#1 (antibody, V domains shown)
VH: B2 VH
VL: DIVMTQSPPTLSLSPGERVTLSCKSSQSLLNSGNQKNYLTWYQQKPGQAPRLLIYWASTRESGIPARFSGSGSGTDFTLTISSLQPEDFAVYHCQNDYSYPYTFGQGTKLEIK
notes: Variable regions cloned with IGHG1 (also IGHG4 and Fab vectors exist) and IGKC constant regions; format in each assay not always stated; also called humanized variant Hum231#1 (IGHV1-2*02 and IGK3-7*02)

- binding result (recombinant mouse GITR): no binding
- Ka [7]: 4.2e+08 M⁻¹
- Kd [7]: 2.38 nM
B4: mAb 231-1039-45 (murine) (antibody, mouse IgG1, V domains shown)
VH: QVQLLQSGTELVRPGVSVKISCKGSGYTFTDYAMYWVKQSHAKSLEWIGVIRTYSGDVTYNQKFKDKATMTVDKSSSIAYMELARLSSEDSAIYYCAKSGTVRGFAYWGQGTLVTVSS
VL: DIVMTQSPSSLTVTAGEKVIMSCKSSQSLLNSGNQKNYLTWYQQKPGQPPKLLIYWASTRESGVPDRFTGSGSGTDFTLTISSVQAEDLAVYHCQNDYSYPYTFGGGTKLEIK
notes: Mouse IgG1 from hybridoma

- Kd [4]: 2.02 nM
- koff [4]: 0.000712 s⁻¹
- kon [4]: 352000 M⁻¹ s⁻¹
- percent reduction in binding relative to wild type human GITR [2]: 82%
- percent reduction in binding relative to wild type human GITR [3]: 37%
- binding result [5]: binds
- binding result [6]: no binding (tested: 2 µg/ml)
B5: chimeric parental 231-32-15 antibody (antibody, human IgG1, V domains shown)
VH: B4 VH
VL: B4 VL
notes: Murine variable regions on human IgG1 (CH1-2-3) and human kappa constant regions; T109S (Kabat) in the light chain constant domain

- binding result (recombinant mouse GITR): no binding
- Ka [7]: 4.04e+08 M⁻¹
- Kd [7]: 2.47 nM
B6: mAb 231-32-15 (murine) (antibody, mouse IgG1, V domains shown)
VH: B4 VH
VL: B4 VL
notes: Mouse IgG1 from hybridoma; also called antibody 32-15

- binding result (recombinant mouse GITR): no binding
- Ka [7]: 4.3e+08 M⁻¹
- Kd [7]: 2.33 nM
B7: mAb 231-1042-7 (murine) (antibody, mouse IgG1, V domains shown)
VH: B4 VH
VL: B4 VL
notes: Mouse IgG1 from hybridoma

- binding result (recombinant mouse GITR): no binding
- Ka [7]: 4.19e+08 M⁻¹
- Kd [7]: 2.39 nM
B8: mAb 231-1333-21 (murine) (antibody, mouse IgG1, V domains shown)
VH: B4 VH
VL: B4 VL
notes: Mouse IgG1 from hybridoma
